Target: dCas9-24XGP41 (Streptococcus pyogenes serotype M1) (UniProt Q99ZW2)
Experiment: cell-based or functional assay

For “NbGP41-sfGFP-VP64-GB1 (from UniProt P06654 228-282) (VHH)”, the expression of CLV3 in homozygous Setaria MoonTag lines against wild-type ME34 (RT-qPCR) was 100 fold.

From patent US20250002926A1
